Data taken from the Human Domainome abundance scans (Beltran et al. 2025).
± gives the uncertainty stated by the source.

Assay: abundance fitness (aPCA) (normalised: wild type 0, dead -1); higher = more abundant; growth selection in yeast, the domain comes from the species named
Details: Homo sapiens
For “DnaJ homolog subfamily B member 1 E19Q, P25685”, the abundance fitness was 0.118 ± 0.12.
In the case of “DnaJ homolog subfamily B member 1 E43N, P25685”, the abundance fitness is reported as -0.003 ± 0.21.
For “DnaJ homolog subfamily B member 1 H32R, P25685”, the abundance fitness was -0.057 ± 0.061.
“DnaJ homolog subfamily B member 1 D57E, P25685” gave an abundance fitness of -0.269 ± 0.14.
Substance “DnaJ homolog subfamily B member 1 Y6T, P25685” has an abundance fitness of -0.557 ± 0.11.
“DnaJ homolog subfamily B member 1 I20K, P25685” showed an abundance fitness of -0.86 ± 0.087.
For “DnaJ homolog subfamily B member 1 R30I, P25685”, the abundance fitness was -0.036 ± 0.095.
In the case of “DnaJ homolog subfamily B member 1 R30E, P25685”, the abundance fitness is reported as 0.047 ± 0.24.
Work on “DnaJ homolog subfamily B member 1 H32W, P25685” yielded an abundance fitness of -0.155 ± 0.075.
For “DnaJ homolog subfamily B member 1 I63K, P25685”, the abundance fitness was -0.019 ± 0.13.
For “DnaJ homolog subfamily B member 1 R13E, P25685”, the abundance fitness was -0.142 ± 0.089.
Substance “DnaJ homolog subfamily B member 1 Y5R, P25685” has an abundance fitness of -0.52 ± 0.11.
In the case of “DnaJ homolog subfamily B member 1 D53E, P25685”, the abundance fitness is reported as -0.398 ± 0.12.
With “DnaJ homolog subfamily B member 1 D4Y, P25685” the abundance fitness was -0.256 ± 0.19.
Substance “DnaJ homolog subfamily B member 1 N36I, P25685” has an abundance fitness of -0.181 ± 0.13.
“DnaJ homolog subfamily B member 1 Y31T, P25685” showed an abundance fitness of -0.369 ± 0.12.
For “DnaJ homolog subfamily B member 1 A49C, P25685”, the abundance fitness was 0.049 ± 0.12.
“DnaJ homolog subfamily B member 1 Q27N, P25685” showed an abundance fitness of -0.14 ± 0.12.
Substance “DnaJ homolog subfamily B member 1 N36C, P25685” has an abundance fitness of 0.124 ± 0.17.
“DnaJ homolog subfamily B member 1 G14E, P25685” showed an abundance fitness of -0.192 ± 0.078.
“DnaJ homolog subfamily B member 1 A15N, P25685” gave an abundance fitness of -0.668 ± 0.14.
For “DnaJ homolog subfamily B member 1 A15I, P25685”, the abundance fitness was -0.69 ± 0.14.
For “DnaJ homolog subfamily B member 1 K60A, P25685”, the abundance fitness was -0.172 ± 0.093.
“DnaJ homolog subfamily B member 1 D34K, P25685” gave an abundance fitness of -0.046 ± 0.074.
For “DnaJ homolog subfamily B member 1 P58Y, P25685”, the abundance fitness was -0.229 ± 0.13.
“DnaJ homolog subfamily B member 1 Q27Y, P25685” gave an abundance fitness of -0.056 ± 0.28.
“DnaJ homolog subfamily B member 1 G40I, P25685” showed an abundance fitness of -0.026 ± 0.13.
“DnaJ homolog subfamily B member 1 T8L, P25685” showed an abundance fitness of -0.101 ± 0.071.
“DnaJ homolog subfamily B member 1 A51G, P25685” gave an abundance fitness of -0.628 ± 0.061.
Substance “DnaJ homolog subfamily B member 1 R30Y, P25685” has an abundance fitness of 0.131 ± 0.087.
For “DnaJ homolog subfamily B member 1 L55M, P25685”, the abundance fitness was -0.464 ± 0.11.
“DnaJ homolog subfamily B member 1 S56M, P25685” showed an abundance fitness of -0.171 ± 0.095.
Substance “DnaJ homolog subfamily B member 1 E19P, P25685” has an abundance fitness of -1.29 ± 0.11.
For “DnaJ homolog subfamily B member 1 H32P, P25685”, the abundance fitness was -0.199 ± 0.14.
For “DnaJ homolog subfamily B member 1 R13L, P25685”, the abundance fitness was -0.191 ± 0.066.
With “DnaJ homolog subfamily B member 1 K35Q, P25685” the abundance fitness was -0.213 ± 0.092.
In the case of “DnaJ homolog subfamily B member 1 E47N, P25685”, the abundance fitness is reported as 0.333 ± 0.21.
Work on “DnaJ homolog subfamily B member 1 R13A, P25685” yielded an abundance fitness of -0.148 ± 0.081.
For “DnaJ homolog subfamily B member 1 Y52E, P25685”, the abundance fitness was -0.441 ± 0.069.
For “DnaJ homolog subfamily B member 1 L29A, P25685”, the abundance fitness was -0.167 ± 0.085.
For “DnaJ homolog subfamily B member 1 A41D, P25685”, the abundance fitness was -0.036 ± 0.13.
With “DnaJ homolog subfamily B member 1 N36K, P25685” the abundance fitness was -0.112 ± 0.085.
Substance “DnaJ homolog subfamily B member 1 F64A, P25685” has an abundance fitness of -0.361 ± 0.3.
Substance “DnaJ homolog subfamily B member 1 R25G, P25685” has an abundance fitness of -0.007 ± 0.12.
With “DnaJ homolog subfamily B member 1 R13I, P25685” the abundance fitness was -0.221 ± 0.15.
Work on “DnaJ homolog subfamily B member 1 D17H, P25685” yielded an abundance fitness of -0.182 ± 0.13.
“DnaJ homolog subfamily B member 1 D65F, P25685” showed an abundance fitness of -0.275 ± 0.18.
“DnaJ homolog subfamily B member 1 A41E, P25685” gave an abundance fitness of -0.009 ± 0.11.
“DnaJ homolog subfamily B member 1 P39W, P25685” showed an abundance fitness of 0.026 ± 0.12.
For “DnaJ homolog subfamily B member 1 A15C, P25685”, the abundance fitness was -0.056 ± 0.14.
Work on “DnaJ homolog subfamily B member 1 I63L, P25685” yielded an abundance fitness of -0.097 ± 0.082.
Substance “DnaJ homolog subfamily B member 1 A41I, P25685” has an abundance fitness of -0.132 ± 0.17.
“DnaJ homolog subfamily B member 1 R26P, P25685” gave an abundance fitness of -0.628 ± 0.1.
“DnaJ homolog subfamily B member 1 L11T, P25685” gave an abundance fitness of -0.209 ± 0.11.
In the case of “DnaJ homolog subfamily B member 1 L55Q, P25685”, the abundance fitness is reported as -0.747 ± 0.1.
With “DnaJ homolog subfamily B member 1 R13N, P25685” the abundance fitness was -0.091 ± 0.11.
With “DnaJ homolog subfamily B member 1 D65A, P25685” the abundance fitness was -0.123 ± 0.078.
For “DnaJ homolog subfamily B member 1 E62W, P25685”, the abundance fitness was -0.626 ± 0.096.
Work on “DnaJ homolog subfamily B member 1 H32C, P25685” yielded an abundance fitness of -0.106 ± 0.14.
“DnaJ homolog subfamily B member 1 K37E, P25685” showed an abundance fitness of 0.117 ± 0.22.
For “DnaJ homolog subfamily B member 1 L29C, P25685”, the abundance fitness was -0.119 ± 0.086.
“DnaJ homolog subfamily B member 1 L9H, P25685” gave an abundance fitness of -1.12 ± 0.12.
“DnaJ homolog subfamily B member 1 G40E, P25685” gave an abundance fitness of -0.194 ± 0.1.
“DnaJ homolog subfamily B member 1 S16R, P25685” gave an abundance fitness of -0.158 ± 0.065.
For “DnaJ homolog subfamily B member 1 R59L, P25685”, the abundance fitness was -0.186 ± 0.099.
In the case of “DnaJ homolog subfamily B member 1 K60G, P25685”, the abundance fitness is reported as -0.325 ± 0.073.
With “DnaJ homolog subfamily B member 1 E43Y, P25685” the abundance fitness was 0.196 ± 0.32.
“DnaJ homolog subfamily B member 1 D17T, P25685” gave an abundance fitness of -0.161 ± 0.11.
Work on “DnaJ homolog subfamily B member 1 Y31G, P25685” yielded an abundance fitness of -0.302 ± 0.1.
With “DnaJ homolog subfamily B member 1 A12G, P25685” the abundance fitness was -0.421 ± 0.1.
“DnaJ homolog subfamily B member 1 I48F, P25685” showed an abundance fitness of -0.41 ± 0.13.
For “DnaJ homolog subfamily B member 1 K44I, P25685”, the abundance fitness was -0.279 ± 0.2.
In the case of “DnaJ homolog subfamily B member 1 I63N, P25685”, the abundance fitness is reported as -0.012 ± 0.11.
For “DnaJ homolog subfamily B member 1 L11N, P25685”, the abundance fitness was -0.712 ± 0.12.
Work on “DnaJ homolog subfamily B member 1 I63T, P25685” yielded an abundance fitness of 0.588 ± 0.081.
“DnaJ homolog subfamily B member 1 A15E, P25685” showed an abundance fitness of -0.481 ± 0.068.
“DnaJ homolog subfamily B member 1 K35E, P25685” gave an abundance fitness of -0.285 ± 0.088.
With “DnaJ homolog subfamily B member 1 Y5H, P25685” the abundance fitness was 0.024 ± 0.068.
With “DnaJ homolog subfamily B member 1 R59V, P25685” the abundance fitness was -0.059 ± 0.071.
With “DnaJ homolog subfamily B member 1 E38T, P25685” the abundance fitness was -0.041 ± 0.089.
For “DnaJ homolog subfamily B member 1 Y52M, P25685”, the abundance fitness was -0.049 ± 0.091.
Substance “DnaJ homolog subfamily B member 1 R61L, P25685” has an abundance fitness of -0.527 ± 0.076.
For “DnaJ homolog subfamily B member 1 A23Q, P25685”, the abundance fitness was -0.241 ± 0.13.
“DnaJ homolog subfamily B member 1 R59C, P25685” gave an abundance fitness of -0.128 ± 0.14.
Work on “DnaJ homolog subfamily B member 1 V54P, P25685” yielded an abundance fitness of -0.699 ± 0.059.
For “DnaJ homolog subfamily B member 1 A41W, P25685”, the abundance fitness was -0.255 ± 0.064.
Work on “DnaJ homolog subfamily B member 1 I63W, P25685” yielded an abundance fitness of -0.277 ± 0.12.
“DnaJ homolog subfamily B member 1 G14P, P25685” showed an abundance fitness of -0.347 ± 0.12.
“DnaJ homolog subfamily B member 1 K21L, P25685” gave an abundance fitness of -0.029 ± 0.051.
“DnaJ homolog subfamily B member 1 A12P, P25685” showed an abundance fitness of -0.108 ± 0.12.
“DnaJ homolog subfamily B member 1 E42L, P25685” gave an abundance fitness of 0.086 ± 0.055.
Substance “DnaJ homolog subfamily B member 1 K60P, P25685” has an abundance fitness of -0.352 ± 0.17.
“DnaJ homolog subfamily B member 1 S56T, P25685” gave an abundance fitness of -0.111 ± 0.087.
“DnaJ homolog subfamily B member 1 R59N, P25685” showed an abundance fitness of -0.068 ± 0.14.
For “DnaJ homolog subfamily B member 1 E62C, P25685”, the abundance fitness was -0.361 ± 0.14.
In the case of “DnaJ homolog subfamily B member 1 Y31H, P25685”, the abundance fitness is reported as -0.494 ± 0.21.
“DnaJ homolog subfamily B member 1 Y24T, P25685” showed an abundance fitness of -0.427 ± 0.08.
With “DnaJ homolog subfamily B member 1 I20S, P25685” the abundance fitness was -0.782 ± 0.061.
Substance “DnaJ homolog subfamily B member 1 I48P, P25685” has an abundance fitness of -0.561 ± 0.1.
For “DnaJ homolog subfamily B member 1 D65R, P25685”, the abundance fitness was -0.163 ± 0.1.
“DnaJ homolog subfamily B member 1 G40D, P25685” showed an abundance fitness of -0.301 ± 0.078.
For “DnaJ homolog subfamily B member 1 K44A, P25685”, the abundance fitness was -0.138 ± 0.092.
Substance “DnaJ homolog subfamily B member 1 R26T, P25685” has an abundance fitness of -0.128 ± 0.12.
